The results in this text go back to US20140193915, “COMPOSITIONS AND METHODS FOR CUSTOM SITE-SPECIFIC DNA RECOMBINASES” (Monsanto Technology, LLC, published 2014).

The target in one series is T1, sN-TALER IV-4 (synthetic).
T1 chain: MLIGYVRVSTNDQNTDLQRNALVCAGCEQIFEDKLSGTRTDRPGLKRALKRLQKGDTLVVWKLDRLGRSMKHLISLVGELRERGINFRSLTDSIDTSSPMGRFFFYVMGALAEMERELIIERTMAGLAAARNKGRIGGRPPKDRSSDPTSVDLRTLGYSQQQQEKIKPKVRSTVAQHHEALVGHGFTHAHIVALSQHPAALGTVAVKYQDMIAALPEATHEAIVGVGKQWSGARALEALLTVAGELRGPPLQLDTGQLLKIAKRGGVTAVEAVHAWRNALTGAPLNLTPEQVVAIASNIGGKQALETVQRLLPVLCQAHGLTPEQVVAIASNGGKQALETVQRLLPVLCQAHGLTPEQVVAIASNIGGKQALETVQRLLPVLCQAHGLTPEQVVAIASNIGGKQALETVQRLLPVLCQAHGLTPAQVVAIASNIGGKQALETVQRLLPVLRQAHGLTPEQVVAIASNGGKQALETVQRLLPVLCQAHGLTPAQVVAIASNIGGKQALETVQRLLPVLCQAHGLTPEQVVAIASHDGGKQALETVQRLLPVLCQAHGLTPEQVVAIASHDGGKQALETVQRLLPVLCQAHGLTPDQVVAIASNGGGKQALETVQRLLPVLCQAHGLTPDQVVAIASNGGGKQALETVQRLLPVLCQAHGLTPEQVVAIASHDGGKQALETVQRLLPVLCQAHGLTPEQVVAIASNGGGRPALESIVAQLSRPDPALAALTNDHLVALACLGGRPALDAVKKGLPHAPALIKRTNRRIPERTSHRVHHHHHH
Briefly: cell_activity; E. coli. The settings on record: tags: 6-His. The method in brief: (§1)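 DH5alpha cells co-transformed (heat shock or electroporation) with N-TALER expression and reporter plasmids at ~1:1 mass ratio; reporter alone as control. Plated on chloramphenicol/kanamycin/X-gal, grown 37° C. for 18 to 36 hours; recombination scored by colony colour.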

The target of series [1] is T2, sN-TALER IV-2 (GinH106Y-TALE13) (synthetic).
T2 chain: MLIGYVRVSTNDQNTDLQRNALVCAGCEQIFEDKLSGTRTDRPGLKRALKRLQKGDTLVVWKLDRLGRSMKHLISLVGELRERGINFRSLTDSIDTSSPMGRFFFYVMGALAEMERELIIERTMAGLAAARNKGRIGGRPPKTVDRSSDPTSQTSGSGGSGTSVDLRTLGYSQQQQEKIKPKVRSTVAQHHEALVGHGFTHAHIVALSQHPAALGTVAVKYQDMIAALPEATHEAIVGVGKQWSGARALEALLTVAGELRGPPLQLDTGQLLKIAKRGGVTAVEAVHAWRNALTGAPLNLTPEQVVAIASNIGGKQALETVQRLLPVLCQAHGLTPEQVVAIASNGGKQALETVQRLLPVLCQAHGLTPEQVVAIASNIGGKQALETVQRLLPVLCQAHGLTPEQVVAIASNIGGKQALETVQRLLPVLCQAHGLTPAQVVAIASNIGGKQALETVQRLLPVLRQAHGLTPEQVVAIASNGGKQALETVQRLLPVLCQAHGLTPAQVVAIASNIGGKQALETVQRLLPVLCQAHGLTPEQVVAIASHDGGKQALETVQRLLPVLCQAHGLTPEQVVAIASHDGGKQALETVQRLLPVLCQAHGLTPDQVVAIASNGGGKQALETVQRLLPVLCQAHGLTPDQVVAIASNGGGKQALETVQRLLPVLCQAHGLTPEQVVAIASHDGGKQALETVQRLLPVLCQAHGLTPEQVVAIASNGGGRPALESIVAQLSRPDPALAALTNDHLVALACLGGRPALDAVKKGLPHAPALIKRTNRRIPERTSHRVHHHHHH
In words: cell_activity; E. coli. The settings on record: tags: 6-His. The method in brief:
as §1

B1: Gin18TALE+0 (dsDNA)
DNA 1: AGAAGGTATTTATACCAAAACCATGGTTTACATATAAATACCTTCT
DNA 2: AGAAGGTATTTATATGTAAACCATGGTTTTGGTATAAATACCTTCT
In the case of B1, the activity is 4 score with sN-TALER IV-4 and 1 score in series [1].

B2: Gin20TALE+0 (dsDNA)
DNA 1: AGAAGGTATTTATATCCAAAACCATGGTTTACAGTATAAATACCTTCT
DNA 2: AGAAGGTATTTATACTGTAAACCATGGTTTTGGATATAAATACCTTCT
Turning to B2, the activity (with sN-TALER IV-4; in series [1]) was 1 score each time.
